Laboratory results: patent US20260209370A1 (RADIANT BIOTHERAPEUTICS, published 2026)
Values belong to the molecule of their own block, whether it stands above or below them.

What was measured:
[1] = target: 4-1BB on engineered 4-1BB-expressing effector cells (luciferase reporter assay) (UniProt Q07011); test: cell-based or functional assay
[2] = target: 4-1BB on engineered 4-1BB-expressing effector cells (luciferase reporter assay) (UniProt Q07011 24-255, limits assumed); test: cell-based or functional assay
[3] = target: T1, recombinant mouse 4-1BB protein (mouse, UniProt P20334 24-187); test: ELISA, plates coated with recombinant 4-1BB, detection with goat α-human Fcγ-HRP
T1 sequence (looked up): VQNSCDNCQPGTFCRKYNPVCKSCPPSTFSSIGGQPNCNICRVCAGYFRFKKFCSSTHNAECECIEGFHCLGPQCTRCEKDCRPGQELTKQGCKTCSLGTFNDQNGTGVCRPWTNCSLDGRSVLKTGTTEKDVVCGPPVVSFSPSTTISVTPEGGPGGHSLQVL
Experimental: Cross-reactivity was assessed using ELISA. Briefly, plates were coated with recombinant 4-1BB proteins derived from either human, cynomolgus monkey, or mouse. Plates were then washed, blocked, and incubated with bovine serum albumin (BSA), along with a series of known concentrations of α-4-1BB IgGs/MBs. The plate was then washed and incubated with a Goat α-human Fcy-HRP secondary antibody to detect bound IgG/MB. The plates were then washed again and developed with TMB substrate to detect HRP and read at OD 450 nm.

B1: NM21 IgG1 (parent IgG of Fab #1) (antibody, V domains shown)
VH: EVQLVESGGGLVQPGGSLRLSCAASGFSFSANYYPCWVRQAPGKGLEWIGCIYGGSSDITYDANWTKGRFTISRDNSKNTVYLQMNSLRAEDTAVYYCARSAWYSGWGGDLWGQGTLVTVSS
VL: DIQMTQSPSSLSASVGDRVTITCQASQSISNRLAWYQQKPGKAPKLLIYSASTLASGVPSRFSGSGSGTDFTLTISSLQPEDFATYYCQSTYYGNDGNAFGTGTKVTVLG
EC50 (nM) + Fc (4-1BB agonism, luciferase reporter, with FcγRIIb CHO-K1 cells) [2]: 0.258 nM

B2: effector silent α-4-1BB (AG10058; Fab #3) MB (protein, part only; not given: Fab constants, linkers, ferritin carriers, not shown: another chain or arm of the molecule; a dimerising Fc or GST; large carriers; small tags and cut ends)
VH: EVQLVESGGGLVQPGGSLRLSCAASGFSLSTSGVGVGWIRQAPGKGLEWLALIDWDDDKYYSPSLKSRLTISRDNSKNTLYLQLNSLRAEDTAVYYCARGGSDTVLGDWFAYWGQGTLVTVSS
VL: DIQLTQSPSSLSASVGDRVTITCRASQSVSPYLAWYQQKPGKAPKLLIYDASSLESGVPSRFSGSGSGTDFTLTISSLQPEDFATYYCQQGYSLWTFGQGTKVEIK
modifications: Self-assembled ferritin nanocage (Multabody) made from scFab-hFTL, scFab-N_hFTL and scFc(LLRAL)-C_hFTL fusions, with genes mixed 2:1:1. The letters do not carry this multivalent display.
EC50 (nM) + Fc (4-1BB agonism, luciferase reporter, with FcγRIIb CHO-K1 cells) [1]: 0.019 nM | EC50 (nM) - Fc (4-1BB agonism, luciferase reporter, without Fc crosslinking) [1]: 0.02 nM

B3: AG10058 IgG (IgG4; parent IgG of Fab #3) (antibody, V domains shown)
VH: B2 VH
VL: B2 VL
notes: also called Fab #3 IgG
EC50 (nM) + Fc (4-1BB agonism, luciferase reporter, with FcγRIIb CHO-K1 cells) [2]: 0.346 nM | binding result [3]: binds

Other lines, results leading:

EC50 (nM) + Fc (4-1BB agonism, luciferase reporter, with FcγRIIb CHO-K1 cells) [1]: 0.079 nM | EC50 (nM) - Fc (4-1BB agonism, luciferase reporter, without Fc crosslinking) [1]: 0.087 nM
Molecule: Urelumab MB (effector-silent α-4-1BB Multabody displaying scFabs based on urelumab)

EC50 (nM) + Fc (4-1BB agonism, luciferase reporter, with FcγRIIb CHO-K1 cells) [2]: 0.25 nM | EC50 (nM) - Fc (4-1BB agonism, luciferase reporter, without Fc crosslinking) [2]: 0.442 nM
B4: Urelumab IgG4 (antibody, V domains shown)
VH: QVQLQQWGAGLLKPSETLSLTCAVYGGSFSGYYWSWIRQSPEKGLEWIGEINHGGYVTYNPSLESRVTISVDTSKNQFSLKLSSVTAADTAVYYCARDYGPGNYDWYFDLWGRGTLVTVSS
VL: EIVLTQSPATLSLSPGERATLSCRASQSVSSYLAWYQQKPGQAPRLLIYDASNRATGIPARFSGSGSGTDFTLTISSLEPEDFAVYYCQQRSNWPPALTFGGGTKVEIK
